# Data from patent US20200262913A1 (ZymoGenetics, published 2020).
# Positions count from the first letter of the chain named. Names may count otherwise.
# T1: recombinant human IL-31 (as used in the NHK STAT3 phosphorylation assay of Example 5) (human, UniProt Q6EBC2 24-164, limits assumed)
# T1 sequence: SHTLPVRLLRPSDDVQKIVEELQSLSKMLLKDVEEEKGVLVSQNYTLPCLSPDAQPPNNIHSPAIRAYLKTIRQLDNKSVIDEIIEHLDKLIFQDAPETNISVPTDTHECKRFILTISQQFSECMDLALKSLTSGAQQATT
# T2: recombinant human IL-31 (hIL-31, BHK produced, A1277F, zcytor17lig CEE) (human, UniProt Q6EBC2 24-164)
# T2 construct: also called recombinant hIL-31
# T2 sequence: T1 sequence
# B1: humanized 292.12.3.1 construct clone 26 (12VH1-gly + HC(fback) + LC(F71Y)) (antibody, human IgG4, V domains shown)
# VH: QVQLVQSGAEVKKPGASVKVSCKASGYTLTRYWMQWVRQAPGQGLEWMGAIYPGDGDTRYSQKFQGRVTLTADKSISTAYMELSSLRSEDTAVYYCAFPDGYYAAPYGMDYWGQGTLVTVSS
# VL: DIQMTQSPSSLSASVGDRVTITCRASGNIHNYLAWYQQKPGKVPKLLIYNAKTLADGVPSRFSGSGSGTDYTLTISSLQPEDVATYYCQHFWSTPWTFGQGTKVEIKR
# B2: humanized 292.12.3.1 construct clone 17 (12VH1-gly + HC(fback) + LC(D70Q, F71Y, T72S)) (antibody, human IgG4, V domains shown)
# VH: B1 VH
# VL: B1 VL with D70Q, T72S
# B3: humanized 292.12.3.1 construct clone 14 (12VH1-gly + HC(M69L, R71A, T73K, V78A, R94F) + LC(fback)) (antibody, human IgG4, V domains shown)
# VH: B1 VH with L29F
# VL: B1 VL with G66R, G68E, D70Q, T72S
# B4: humanized 292.12.3.1 construct clone 16 (12VH1-gly + HC(fback) + LC(G66R, G68E, D70Q, T72S)) (antibody, human IgG4, V domains shown)
# VH: B1 VH
# VL: B1 VL with G66R, G68E, D70Q, Y71F, T72S
# B5: humanized 292.12.3.1 construct clone 27 (12VH1-gly + HC(F29L, M69L, R94F) + LC(F71Y)) (antibody, human IgG4, V domains shown)
# VH: B1 VH with A72R, K74T, A79V
# VL: B1 VL
# B6: humanized 292.12.3.1 construct clone 13 (12VH1-gly + HC(F29L, M69L, R71A, T73K, V78A) + LC(fback)) (antibody, human IgG4, V domains shown)
# VH: B1 VH with F98R
# VL: B1 VL with G66R, G68E, D70Q, T72S
# B7: humanized 292.12.3.1 construct clone 28 (12VH1-gly + HC(F29L, R71A, R94F) + LC(F71Y)) (antibody, human IgG4, V domains shown)
# VH: B1 VH with L70M, K74T, A79V
# VL: B1 VL
# B8: humanized 292.12.3.1 construct clone 25 (12VH1-gly + HC(F29L, R94F) + LC(F71Y)) (antibody, human IgG4, V domains shown)
# VH: B1 VH with L70M, A72R, K74T, A79V
# VL: B1 VL
# B9: humanized 292.12.3.1 construct clone 29 (12VH1-gly + HC(F29L, T73K, R94F) + LC(F71Y)) (antibody, human IgG4, V domains shown)
# VH: B1 VH with L70M, A72R, A79V
# VL: B1 VL
# B10: humanized 292.12.3.1 construct clone 10 (12VH1-gly + LC(fback)) (antibody, human IgG4, V domains shown)
# VH: B1 VH with L29F, L70M, A72R, K74T, A79V, F98R
# VL: B1 VL with G66R, G68E, D70Q, T72S
# B11: humanized 292.12.3.1 construct clone 9 (12VH1-gly + HC(fback)) (antibody, human IgG4, V domains shown)
# VH: B1 VH
# VL: B1 VL with Y71F
# notes: also called 09
# B12: humanized 292.12.3.1 construct clone 30 (12VH1-gly + HC(F29L, V78A, R94F) + LC(F71Y)) (antibody, human IgG4, V domains shown)
# VH: B1 VH with L70M, A72R, K74T
# VL: B1 VL
# B13: humanized 292.12.3.1 construct clone 18 (12VH1-gly + HC(fback) + LC(G66R, G68E, F71Y)) (antibody, human IgG4, V domains shown)
# VH: B1 VH
# VL: B1 VL with G66R, G68E
# How the values were obtained:
# [1] = target: T1, recombinant human IL-31 (as used in the …); experiment: cell-based or functional assay
# [2] = target: recombinant human IL-31 (C108S), produced in E. coli by ZymoGenetics, MW 18 kDa (human), Q6EBC2; experiment: cell-based or functional assay
# [3] = target: T2, recombinant human IL-31 (hIL-31, BHK …); experiment: SPR (Biacore), against parent 292.12.3.1
# Method: (§1) The purified monoclonal antibodies were immobilized in individual flow cells on a CM5 type sensor chip. Immobilizations were performed using a standard amine coupling procedure, aiming for an immobilization level of 500 Resonance Units (RU). The antibodies were diluted to 1-5 ug/ml in 10 mM NaAc pH 4.5.
# (§2) HPS-EP pH 7.4 (10 mM HEPES, 150 mM NaCl, 3 mM EDTA and 0.005% Polysorbat P20) was used as running buffer, and diluents for the recombinant hIL-31 (hIL-31, BHK produced, A1277F, zcytor17lig CEE). The hIL-31 was tested in a 3-fold dilution series from 333.3 nM to 1.4 nM. Association (injection) was 4 min., followed by a 20 min. dissociation (wash) period. Flow rate was 50 ul/min. Experiments were performed at 25OC. Regeneration of the surface was accomplished by injection of 30 sec. pulse of 10 mM Glycin-HCl pH 1.8 or 1M formic acid, at a 30 ul/min flow rate. Detection in all flow cells simultaneously. Flow cell #1 contained no immobilized antibody, and was used for subtraction of background and bulk.
# (§3) The kinetic parameters were calculated by global fitting of the data using a 1:1 langmuir binding model. Data was inspected for mass-transport limitations prior to calculation of the kinetic parameters. In some experiments the Rmax was fitted locally, and the RI constant at 0.
# [4] = target: T2, recombinant human IL-31 (hIL-31, BHK …); experiment: SPR (Biacore), mAb amine-coupled to CM5 chip, hIL-31 injected
# Method: as §1, §2, §3
Binder,"IC50, IL-31-induced STAT3 phosphorylation in NHK, Exp 8 [1] [nM]","IC50, IL-31-induced STAT3 phosphorylation in NHK, Exp 9 [1] [nM]","Average Fold loss in potency relative to 292.12.3.1, BAF-3(hIL-31R) proliferation assay [2] [fold]","Average Potency (IC50), inhibition of hIL-31-induced proliferation of BAF-3(hIL-31R) cells [2] [nM]",Relative potency loss (KD) [3],Kd [4] [nM],koff [4] [s⁻¹],kon [4] [M⁻¹ s⁻¹],"IC50, IL-31-induced STAT3 phosphorylation in NHK, Exp 6 [1] [nM]","IC50, IL-31-induced STAT3 phosphorylation in NHK, Exp 7 [1] [nM]",Relative potency loss (kd) [3]
B1,7.84,6.93,5.8,9.3,~0.4 x to parent,0.68,7e-05,100000,–,–,–
B2,–,–,5.2,5.9,~0.4 x to parent,0.9,6.5e-05,70000,6.65,5.29,–
B3,–,–,–,–,~5.5 x to parent,12.5,0.00073,59000,71.9,242,~12 x to parent
B4,–,–,9.8,10.6,~0.5 x to parent,1.2,7.5e-05,61000,3.84,6.22,–
B5,3.42,9.59,18.7,29.1,~0.5 x to parent,0.8,7.9e-05,98000,–,–,~1.3 x to parent
B6,–,–,99.1,109,~10 x to parent,24,0.003,120000,46.5,211,~50 x to parent
B7,10.5,5.95,17.1,26.4,~0.25 x to parent,0.46,5.6e-05,120000,–,–,–
B8,5.85,7.28,16.5,26.3,~0.5 x to parent,0.85,7.2e-05,85000,–,–,–
B9,4.49,5.37,8.3,12.9,~0.5 x to parent,0.99,8.98e-05,90000,–,–,~1.5 x to parent
B10,–,–,–,–,~85 x to parent,186,0.015,88000,68.8,224,~245 x to parent
B11,6.59,7.1,15.1,28.5,–,2.1,9e-05,43000,3.25,7.37,~1.5 x to parent
B12,14.8,8.71,37.1,57.8,~0.5 x to parent,1.1,9e-05,78000,–,–,~1.5 x to parent
B13,–,–,5.9,8.1,~0.5 x to parent,1.13,6.2e-05,55000,2.6,2.68,–
